Drawing on US20260000597A1 (priority 2018, published 2026), this text covers OD for 75 substances.

The test deals with AchR (Homo sapiens, UniProt P02708). Kind of test: ELISA of screened peptide phages on AchR versus streptavidin (OD450). The format is binding. As to conditions: absorbance at 450 nm. As to the method:
The output phages for the 4th and 5th rounds of biopanning in Example 13-1 were inoculated to E. coli, and plated on the agar plates so as to form 100-200 plaques per plate. The plaques were inoculated on 1 ml of an SB liquid medium containing 50 μg/ml of ampicillin by using a sterile tip, and cultured with shaking at 37° C. for 5 hours, followed by the addition of 30 μl of helper phages, and then cultured at 37° C. and 200 rpm for one day. The culture was centrifuged at 12,000 rpm for 2 minutes to collect supernatant, and 2% BSA was added to the supernatant, and used for phage screening.
In a 96-well ELISA plate, 5 μg/ml AchR or streptavidin was added at 50 μl per well, and left at 4° C. overnight. The next day, the solution in each well was discarded, followed by the addition of 2% BSA, and then blocked at room temperature for 2 hours. After the solution was all discarded, the wells were washed three times with Tris (20 mM, pH7). In addition, 100 μl of each of the phage solutions obtained from the above-prepared plaques was dispensed into wells and left at 30° C. for 1 hour. After the solution in the wells was all discarded, the wells were washed three times with Tris (20 mM, pH 7), and then the HRP-conjugated anti-M13 antibody diluted 1:2,000 was added at 100 μl per well, followed by culture at 30° C. for 1 hour. After the wells were washed three times with Tris (20 mM, pH7), 100 μl of tetramethylbenzidine was added to each well to induce a color development reaction, and then the reaction was stopped by the addition of 100 μl of 1M H2SO4, and the absorbance at 450 nm (OD450) was measured. The measured absorbance was converted into a ratio of AchR absorbance to streptavidin absorbance (AchR signal/streptavidin signal), and the results are shown in FIGS. 14 to 16.
For orientation: An ELISA detects its analyte on a solid surface through an enzyme-linked reagent.

The mark [1] stands for this setting: ELISA of selected 11-mer (L2) peptide phages on AchR, Spep-2 positive control.
Setting [2] is: ELISA of selected 14-mer (L3) peptide phages on AchR, Spep-2 positive control.
[3] abbreviates: phage ELISA, 5 μg/ml AchR, 4th and 5th round biopanning phages.

Chain of AchR (P02708 21-457): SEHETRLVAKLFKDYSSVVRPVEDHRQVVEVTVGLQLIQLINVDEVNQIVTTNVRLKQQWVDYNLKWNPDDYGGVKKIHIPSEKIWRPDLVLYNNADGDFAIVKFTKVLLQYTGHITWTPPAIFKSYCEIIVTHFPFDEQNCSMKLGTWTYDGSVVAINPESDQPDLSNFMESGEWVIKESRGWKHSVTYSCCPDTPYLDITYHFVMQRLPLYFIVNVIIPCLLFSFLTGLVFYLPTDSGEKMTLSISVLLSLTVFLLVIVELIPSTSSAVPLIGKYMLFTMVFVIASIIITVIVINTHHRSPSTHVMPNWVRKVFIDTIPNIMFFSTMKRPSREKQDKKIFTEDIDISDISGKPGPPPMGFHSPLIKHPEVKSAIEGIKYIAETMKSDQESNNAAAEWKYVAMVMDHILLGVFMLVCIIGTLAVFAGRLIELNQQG

Substance “L2-163 (PHARTRKNITK; AchR binding peptide) [Peptide L2-163]” yielded an OD under setting [1] of 0.725.

The substance “L3-93 (EGGRIKRPNYRGDG; AchR binding peptide) [Peptide L3-93]” displayed an OD under setting [2] of 0.7.

For “L3-129 (IHPRYKRHQARSCC; AchR binding peptide) [Peptide L3-129]”, the OD under setting [2] worked out at 0.606.

For RLRKSLGK [Peptide L1-95], the OD under setting [3] is listed as 0.535.

On to “L2-15 (HTTRGKRCDPR; AchR binding peptide) [Peptide L2-15]”, for which the OD under setting [1] is listed as 0.705.

Turning to KERKLWWK [Peptide L1-171], the OD under setting [3] amounted to 0.583.

For “L3-97 (WSAKGRRMGCKSTM; AchR binding peptide) [Peptide L3-97]”, under setting [2], the OD was found to be 0.684.

“L3-92 (NLERTKKHGLKGYM; AchR binding peptide) [Peptide L3-92]” registered an OD under setting [2] of 0.657.

Regarding KTRKIVMK [Peptide L1-199], under setting [3], the OD stood at 0.596.

Turning to “L3-108 (ESYRLRRGTDKEQW; AchR binding peptide) [Peptide L3-108]”, the OD under setting [2] is listed as 0.621.

“L2-188 (CLWRLRKDNGR; AchR binding peptide) [Peptide L2-188]”: the OD under setting [1] was 0.73.

In turn, “L2-178 (VPYRHRRMQFK; AchR binding peptide) [Peptide L2-178]” gave an OD under setting [1] of 0.718.

Consider “L3-158 (FDMRDRRPNARVMP; AchR binding peptide) [Peptide L3-158]”, for which, under setting [2], the OD is given as 0.738.

KFRKHVCK [Peptide L1-116] showed an OD under setting [3] of 0.492.

“L2-166 (QQLRLRKLCGK; AchR binding peptide) [Peptide L2-166]” displayed an OD under setting [1] of 0.579.

With “L3-151 (HTLKPKRLYPRPSE; AchR binding peptide) [Peptide L3-151]”, the OD under setting [2] is recorded as 0.624.

“GGRKKRRQRRR [Peptide L2-203, reference compound]” displayed an OD under setting [3] of 0.302.

In turn, “L3-145 (MHIKMKREQVKDEE; AchR binding peptide) [Peptide L3-145]” showed an OD under setting [2] of 0.495.

“L2-118 (FLRRLKKVHWK; AchR binding peptide) [Peptide L2-118]” came in with an OD under setting [1] of 0.65.

With “L3-79 (QQFKYRRECVKYGS; AchR binding peptide) [Peptide L3-79]”, the OD under setting [2] is reported as 0.701.

“L2-78 (HHNRMKKQYHR; AchR binding peptide) [Peptide L2-78]” came in with an OD under setting [1] of 0.718.

Regarding KWRRELPR [Peptide L1-182], the OD under setting [3] is 0.585.

Turning to “L3-187 (HGHKPRRWIYRMPM; AchR binding peptide) [Peptide L3-187]”, the OD under setting [2] is given as 0.731.

Take “L2-29 (AILKGKRIPNK; AchR binding peptide) [Peptide L2-29]”: the OD under setting [1] is 0.756.

For the substance KAKKIRQR [Peptide L1-1], the OD under setting [3] is 0.693.

Take “L3-78 (FITKSRRQQFRNQG; AchR binding peptide) [Peptide L3-78]”: under setting [2], the OD was 0.712.

“L2-49 (YPFKAKRPAEK; AchR binding peptide) [Peptide L2-49]”: the OD under setting [1] turned out to be 0.734.

“L3-24 (FVRKKRKSLLRDTR; AchR binding peptide) [Peptide L3-24]” displayed an OD under setting [2] of 0.846.

Turning to “L3-114 (LQNRMRKIYWKTFD; AchR binding peptide) [Peptide L3-114]”, the OD under setting [2] is recorded as 0.646.

Substance “L2-9 (ATCKPKRPWYK; AchR binding peptide) [Peptide L2-9]” yielded an OD under setting [1] of 0.721.

The substance KVKRLPYR [Peptide L1-146] showed an OD under setting [3] of 0.362.

Under setting [2], “L3-199 (PQTRYRKYFYRPQM; AchR binding peptide) [Peptide L3-199]” had an OD of 0.781.

Regarding KFRRQSTR [Peptide L1-139], the OD under setting [3] is 0.456.

As to RGRKKCGK [Peptide L1-42], the OD under setting [3] turned out to be 0.695.

As to “L3-194 (WAPRDRRNMGRDPA; AchR binding peptide) [Peptide L3-194]”, under setting [2], the OD is on record as 0.743.

Under setting [1], “L2-173 (SWAKARKLVHR; AchR binding peptide) [Peptide L2-173]” returned an OD of 0.705.

With KYRRNLVR [Peptide L1-56], the OD under setting [3] was determined as 0.468.

KTKRVDPK [Peptide L1-102] registered an OD under setting [3] of 0.507.

“L2-140 (YPQKLRRTALK; AchR binding peptide) [Peptide L2-140]”: the OD under setting [1] came to 0.445.

For “L2-114 (QVTKSKRVAFK; AchR binding peptide) [Peptide L2-114]”, under setting [1], the OD amounted to 0.643.

With KTRRVDLR [Peptide L1-38], under setting [3], the OD came to 0.514.

As to “L3-67 (VTWKFRKAEKRWGY; AchR binding peptide) [Peptide L3-67]”, the OD under setting [2] is listed as 0.786.

“L3-170 (CIFKFKKNMFKGYS; AchR binding peptide) [Peptide L3-170]” showed an OD under setting [2] of 0.768.

In turn, “L3-192 (NGYRARKENLKFPE; AchR binding peptide) [Peptide L3-192]” showed an OD under setting [2] of 0.735.

On to “L2-33 (INYRCRKWVDK; AchR binding peptide) [Peptide L2-33]”, for which, under setting [1], the OD came out at 0.619.

Under setting [1], “L2-3 (SPVRWKRLCLR; AchR binding peptide) [Peptide L2-3]” registered an OD of 0.796.

Regarding “L3-10 (AHGKDRRYVEKLEV; AchR binding peptide) [Peptide L3-10]”, under setting [2], the OD was 0.769.

Turning to “L2-116 (SHSRQRKTPLR; AchR binding peptide) [Peptide L2-116]”, under setting [1], the OD is 0.699.

“L3-61 (THDKCKKHNDKQAH; AchR binding peptide) [Peptide L3-61]” registered an OD under setting [2] of 0.768.

As to “L2-87 (EWHKVRRVYAK; AchR binding peptide) [Peptide L2-87]”, the OD under setting [1] was 0.716.

“L3-183 (NMARSRKNECKYIA; AchR binding peptide) [Peptide L3-183]” gave an OD under setting [2] of 0.768.

“L3-119 (TPLKSRKYWNKHAY; AchR binding peptide) [Peptide L3-119]” came in with an OD under setting [2] of 0.693.

For the substance “L2-125 (PADKGRREVMK; AchR binding peptide) [Peptide L2-125]”, under setting [1], the OD was 0.481.

“L2-95 (IMDKRRKPGCR; AchR binding peptide) [Peptide L2-95]” gave an OD under setting [1] of 0.522.

Substance “L2-144 (PYTRCRKEICK; AchR binding peptide) [Peptide L2-144]” gave an OD under setting [1] of 0.521.

For the substance “L3-32 (CATRGKKVFSKRTM; AchR binding peptide) [Peptide L3-32]”, under setting [2], the OD came to 0.845.

In the case of RDRKFVQK [Peptide L1-154], the OD under setting [3] was determined as 0.633.

In turn, “L2-20 (SWQKCKKAEVR; AchR binding peptide) [Peptide L2-20]” yielded an OD under setting [1] of 0.675.

Take “L3-189 (ELVKHRRLDFRDPM; AchR binding peptide) [Peptide L3-189]”: the OD under setting [2] is recorded as 0.786.

Consider “L2-80 (FWDRVKRNPSK; AchR binding peptide) [Peptide L2-80]”, for which the OD under setting [1] is reported as 0.685.

With KDRKGVYK [Peptide L1-111], the OD under setting [3] came to 0.608.

Under setting [3], RQKKDNQK [Peptide L1-26] registered an OD of 0.647.

“L3-15 (YEPRFKRPYGKWCH; AchR binding peptide) [Peptide L3-15]” came in with an OD under setting [2] of 0.859.

Substance RVKRFVPK [Peptide L1-112] showed an OD under setting [3] of 0.431.

Under setting [1], “L2-119 (FCRRSKKIGRR; AchR binding peptide) [Peptide L2-119]” displayed an OD of 0.56.

“L3-200 (HMCRWRRQINKGVS; AchR binding peptide) [Peptide L3-200]”: under setting [2], the OD came out at 0.733.

In turn, KWRRAFGR [Peptide L1-87] gave an OD under setting [3] of 0.538.

Take KMRRWWLK [Peptide L1-190]: the OD under setting [3] amounted to 0.644.

Under setting [3], KMRKGWDK [Peptide L1-138] gave an OD of 0.373.

For “L3-174 (SSGKWKRPHAKYIV; AchR binding peptide) [Peptide L3-174]”, the OD under setting [2] was found to be 0.783.

Under setting [1], “L2-27 (QGEKYRRTESK; AchR binding peptide) [Peptide L2-27]” had an OD of 0.747.

Under setting [1], “L2-196 (QNMRMKRFIQR; AchR binding peptide) [Peptide L2-196]” showed an OD of 0.574.

Take “L3-113 (CLFKYRKSCVRLCG; AchR binding peptide) [Peptide L3-113]”: under setting [2], the OD is on record as 0.766.

“L2-175 (CVMRCRRSEDK; AchR binding peptide) [Peptide L2-175]” came in with an OD under setting [1] of 0.65.

On to RTKKAYVK [Peptide L1-200], for which the OD under setting [3] is given as 0.621.
